Data published in doi:10.1101/2022.11.29.518402 (bioRxiv, 2022).

Key:
[1] = molecular target: T1, ALFA-EMC7(M214C), cysteine in helix 2 (H2) of EMC7 (human, UniProt Q9NPA0 24-242, M214C); assay: cross-linking
T1 sequence: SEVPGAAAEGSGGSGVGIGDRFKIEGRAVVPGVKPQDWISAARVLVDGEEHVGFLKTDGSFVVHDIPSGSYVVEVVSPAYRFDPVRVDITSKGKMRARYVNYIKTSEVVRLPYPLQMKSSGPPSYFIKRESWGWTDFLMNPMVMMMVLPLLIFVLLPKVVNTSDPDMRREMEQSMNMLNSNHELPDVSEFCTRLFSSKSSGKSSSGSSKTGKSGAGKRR

[2] = molecular target: T2, EMC3(T102C)-GFP, cysteine in loop 2 of EMC3 (human, UniProt Q9P0I2 1-261, T102C); assay: cross-linking
T2 sequence: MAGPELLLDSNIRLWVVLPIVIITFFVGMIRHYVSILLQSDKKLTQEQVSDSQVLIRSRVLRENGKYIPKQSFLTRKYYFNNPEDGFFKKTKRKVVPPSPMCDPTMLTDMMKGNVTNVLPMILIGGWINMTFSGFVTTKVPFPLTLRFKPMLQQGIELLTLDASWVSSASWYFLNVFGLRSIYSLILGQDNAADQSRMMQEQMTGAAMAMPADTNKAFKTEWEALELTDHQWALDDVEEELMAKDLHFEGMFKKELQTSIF

binding result [1]: binds | binding result [2]: binds
B1: SQS(L401C): 3xFLAG-Sec61β(2-59, C39S)-SQS(378-end) with a cysteine at L401 in the TMD (other)
chain: PGPTPSGTNVGSSGRSPSKAVAARAAGSTVRQRKNASSGTRSAGRTTSAGTGGMWRFYSRSHYSPIYLSFVMLLAALSWQYCTTLSQVTEDYVQTGEH
modifications: 35S-methionine labelled
